Source: publication PMC9482650, “Quantitative fragmentomics allow affinity mapping of interactomes” (Nature Communications, 2022)
One block for each binder: values may come before it.

Tests used:
Assay in all cases: holdup assay
Design in all cases: key: below the threshold = too weak to quantify, mostly under pKd 3.1 to 4
[1] = molecular target: T1, APBA2_2, Q99767
T1 sequence (Q99767 654-744, limits assumed, looked up): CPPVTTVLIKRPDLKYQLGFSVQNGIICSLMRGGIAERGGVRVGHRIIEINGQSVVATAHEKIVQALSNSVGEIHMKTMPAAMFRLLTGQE

[2] = molecular target: ARHGEF12, Q9NZN5-2
ARHGEF12, Q9NZN5-2, sequence (Q9NZN5 other isoform, or with tags, fused parts or gaps): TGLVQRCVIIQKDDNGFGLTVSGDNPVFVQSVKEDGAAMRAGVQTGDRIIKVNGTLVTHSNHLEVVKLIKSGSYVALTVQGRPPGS

[3] = molecular target: DLG1_2, Q12959
DLG1_2, Q12959, sequence (Q12959 314-412): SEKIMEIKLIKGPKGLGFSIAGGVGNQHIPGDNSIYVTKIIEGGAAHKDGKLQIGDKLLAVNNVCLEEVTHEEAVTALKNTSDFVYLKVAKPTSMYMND

[4] = molecular target: DLG1_3, Q12959
DLG1_3, Q12959, sequence (Q12959 457-571): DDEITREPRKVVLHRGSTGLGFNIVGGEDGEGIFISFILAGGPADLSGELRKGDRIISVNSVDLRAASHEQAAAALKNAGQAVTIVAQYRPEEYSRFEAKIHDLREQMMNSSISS

[5] = molecular target: DLG4_1, P78352
DLG4_1, P78352, sequence (P78352 62-152): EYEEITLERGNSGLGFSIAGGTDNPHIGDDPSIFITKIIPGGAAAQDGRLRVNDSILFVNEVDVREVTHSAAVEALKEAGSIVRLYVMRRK

[6] = molecular target: DLG4_2, P78352
DLG4_2, P78352, sequence (P78352 155-259): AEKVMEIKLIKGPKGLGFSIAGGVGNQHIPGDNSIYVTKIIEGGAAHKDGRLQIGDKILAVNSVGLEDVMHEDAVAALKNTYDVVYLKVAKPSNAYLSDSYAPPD

[7] = molecular target: FRMPD2_1, Q68DX3
FRMPD2_1, Q68DX3, sequence (Q68DX3 770-861): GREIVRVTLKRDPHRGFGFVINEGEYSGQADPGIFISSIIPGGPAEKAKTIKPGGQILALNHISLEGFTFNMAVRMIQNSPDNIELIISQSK

[8] = molecular target: GOPC, Q9HD26
[9] = molecular target: GORASP1, Q9BQQ3
GORASP1, Q9BQQ3, sequence (Q9BQQ3 1-208): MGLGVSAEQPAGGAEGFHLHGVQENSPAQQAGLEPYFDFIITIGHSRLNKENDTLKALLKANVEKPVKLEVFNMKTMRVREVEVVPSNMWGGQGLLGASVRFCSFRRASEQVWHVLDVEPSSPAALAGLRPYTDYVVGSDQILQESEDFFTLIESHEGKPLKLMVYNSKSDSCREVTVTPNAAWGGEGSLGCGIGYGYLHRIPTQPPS

[10] = molecular target: GRASP, Q7Z6J2
GRASP, Q7Z6J2, sequence (Q7Z6J2 96-193): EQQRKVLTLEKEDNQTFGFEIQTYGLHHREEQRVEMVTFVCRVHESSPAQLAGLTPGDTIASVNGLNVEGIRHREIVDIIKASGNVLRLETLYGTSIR

[11] = molecular target: GRID2IP_1, A4D2P6
GRID2IP_1, A4D2P6, sequence (A4D2P6 1-87): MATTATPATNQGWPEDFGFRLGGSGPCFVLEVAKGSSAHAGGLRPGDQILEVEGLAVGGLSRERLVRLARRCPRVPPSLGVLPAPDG

[12] = molecular target: T2, GRIP1_5, Q9Y3R0
T2 sequence (Q9Y3R0 568-668, limits assumed, looked up): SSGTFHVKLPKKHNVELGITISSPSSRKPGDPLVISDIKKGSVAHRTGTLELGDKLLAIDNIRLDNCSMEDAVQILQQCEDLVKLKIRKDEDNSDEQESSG

[13] = molecular target: GRIP2_4, Q9C0E4
GRIP2_4, Q9C0E4, sequence (Q9C0E4 446-548): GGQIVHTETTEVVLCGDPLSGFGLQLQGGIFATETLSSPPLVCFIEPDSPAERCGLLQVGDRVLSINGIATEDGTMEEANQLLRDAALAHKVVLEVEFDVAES

[14] = molecular target: GRIP2_6, Q9C0E4
GRIP2_6, Q9C0E4, sequence (Q9C0E4 648-740): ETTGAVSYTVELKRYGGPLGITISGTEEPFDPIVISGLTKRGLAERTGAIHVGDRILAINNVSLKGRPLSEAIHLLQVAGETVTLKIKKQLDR

[15] = molecular target: HTRA1, Q92743
HTRA1, Q92743, sequence (Q92743 360-477): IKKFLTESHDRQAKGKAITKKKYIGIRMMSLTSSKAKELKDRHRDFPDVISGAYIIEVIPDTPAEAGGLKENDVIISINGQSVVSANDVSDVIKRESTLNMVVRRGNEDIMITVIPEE

[16] = molecular target: HTRA2, O43464
HTRA2, O43464, sequence (O43464 355-458): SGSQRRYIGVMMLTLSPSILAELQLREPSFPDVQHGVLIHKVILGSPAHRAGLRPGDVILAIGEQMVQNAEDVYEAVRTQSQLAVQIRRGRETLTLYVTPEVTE

[17] = molecular target: LAP2, Q96RT1
LAP2, Q96RT1, sequence (Q96RT1 other isoform, or with tags, fused parts or gaps): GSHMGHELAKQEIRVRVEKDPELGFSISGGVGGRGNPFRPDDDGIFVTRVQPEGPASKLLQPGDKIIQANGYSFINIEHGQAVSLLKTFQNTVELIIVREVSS

[18] = molecular target: T3, LIN7B, Q9HAP6
T3 sequence (Q9HAP6 88-185, limits assumed, looked up): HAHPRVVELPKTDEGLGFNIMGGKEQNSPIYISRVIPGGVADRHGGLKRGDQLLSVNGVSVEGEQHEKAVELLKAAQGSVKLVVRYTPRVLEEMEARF

[19] = molecular target: MAGI1_2, Q96QZ7
MAGI1_2, Q96QZ7, sequence (Q96QZ7 456-580): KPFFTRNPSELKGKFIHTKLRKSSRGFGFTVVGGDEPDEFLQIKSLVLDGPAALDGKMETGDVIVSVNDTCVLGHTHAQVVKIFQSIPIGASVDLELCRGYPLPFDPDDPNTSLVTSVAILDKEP

[20] = molecular target: MAGI2_4, Q86UL8
MAGI2_4, Q86UL8, sequence (Q86UL8 772-865): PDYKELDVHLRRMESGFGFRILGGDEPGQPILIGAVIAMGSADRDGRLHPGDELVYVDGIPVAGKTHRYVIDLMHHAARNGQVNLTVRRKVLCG

[21] = molecular target: MAGI3_2, Q5TCQ9
MAGI3_2, Q5TCQ9, sequence (Q5TCQ9 398-503): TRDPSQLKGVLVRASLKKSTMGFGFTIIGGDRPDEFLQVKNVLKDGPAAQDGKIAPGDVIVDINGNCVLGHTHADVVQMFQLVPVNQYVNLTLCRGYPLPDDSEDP

[22] = molecular target: T4, MPDZ_10, O75970
T4 sequence (O75970 1624-1722, limits assumed, looked up): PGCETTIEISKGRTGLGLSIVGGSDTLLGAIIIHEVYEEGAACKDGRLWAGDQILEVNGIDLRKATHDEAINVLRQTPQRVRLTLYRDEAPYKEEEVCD

[23] = molecular target: T5, MPP7, Q5T2T1
T5 sequence (Q5T2T1 134-230, limits assumed, looked up): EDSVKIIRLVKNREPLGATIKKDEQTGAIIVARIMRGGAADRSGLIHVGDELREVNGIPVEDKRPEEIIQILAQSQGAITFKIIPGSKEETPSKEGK

[24] = molecular target: PDLIM1, O00151
PDLIM1, O00151, sequence (O00151 1-87): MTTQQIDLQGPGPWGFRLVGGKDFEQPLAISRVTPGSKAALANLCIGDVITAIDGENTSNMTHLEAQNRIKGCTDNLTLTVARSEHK

[25] = molecular target: T6, RHPN1, Q8TCX5
T6 sequence (Q8TCX5 508-602, limits assumed, looked up): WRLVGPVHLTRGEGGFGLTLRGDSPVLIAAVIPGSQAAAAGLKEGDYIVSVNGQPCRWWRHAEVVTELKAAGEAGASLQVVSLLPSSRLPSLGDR

[26] = molecular target: T7, SIPA1L2, Q9P2F8
T7 sequence (Q9P2F8 945-1036, limits assumed, looked up): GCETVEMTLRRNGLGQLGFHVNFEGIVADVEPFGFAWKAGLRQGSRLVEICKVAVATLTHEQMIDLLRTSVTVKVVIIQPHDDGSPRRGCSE

[27] = molecular target: T8, SNTG1, Q9NSN8
T8 sequence (Q9NSN8 52-150, limits assumed, looked up): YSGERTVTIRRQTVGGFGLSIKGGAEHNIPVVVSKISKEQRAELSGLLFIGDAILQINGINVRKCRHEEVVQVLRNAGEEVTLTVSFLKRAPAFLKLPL

[28] = molecular target: SNX27, Q96L92
[29] = molecular target: T9, SYNJ2BP, P57105
T9 sequence (P57105 8-110, limits assumed, looked up): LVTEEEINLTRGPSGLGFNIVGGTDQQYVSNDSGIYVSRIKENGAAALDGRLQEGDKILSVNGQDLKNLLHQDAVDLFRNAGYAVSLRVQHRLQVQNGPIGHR

[30] = plain residues with an end cap or a label only (N-terminal biotin on a linker: ahx)
[31] = plain residues with an end cap or a label only (N-terminal biotin on a linker: ttds)

pKd [1, 30]: below the threshold
pKd [2, 30]: 3.88
pKd [3, 30]: 5.1
pKd [4, 30]: 3.85
pKd [5, 30]: 4.4
pKd [6, 30]: 4.98
pKd [7, 30]: below the threshold
pKd [8, 30]: below the threshold
pKd [9, 30]: below the threshold
pKd [10, 30]: 3.47
pKd [11, 30]: below the threshold
pKd [12, 30]: below the threshold
pKd [13, 30]: below the threshold
pKd [14, 30]: below the threshold
pKd [15, 30]: 3.84
pKd [16, 30]: below the threshold
pKd [17, 30]: 5.51
pKd [18, 30]: below the threshold
pKd [19, 30]: 3.9
pKd [20, 30]: below the threshold
pKd [21, 30]: 4.69
pKd [22, 30]: below the threshold
pKd [23, 30]: below the threshold
pKd [24, 30]: below the threshold
pKd [25, 30]: 5.21
pKd [26, 30]: below the threshold
pKd [27, 30]: 4.9
pKd [28, 30]: 5.7
pKd [29, 30]: 5.02
Binder: HTHSYIETHV [CNKSR2, Q8WXI2]

pKd [1, 31]: below the threshold
pKd [2, 31]: 3.65
pKd [3, 31]: below the threshold
pKd [4, 31]: 3.55
pKd [5, 31]: 3.56
pKd [6, 31]: below the threshold
pKd [7, 31]: below the threshold
pKd [8, 31]: 3.76
pKd [9, 31]: below the threshold
pKd [10, 31]: below the threshold
pKd [11, 31]: below the threshold
pKd [12, 31]: 3.55
pKd [13, 31]: below the threshold
pKd [14, 31]: below the threshold
pKd [15, 31]: 3.86
pKd [16, 31]: below the threshold
pKd [17, 31]: below the threshold
pKd [18, 31]: below the threshold
pKd [19, 31]: below the threshold
pKd [20, 31]: below the threshold
pKd [21, 31]: below the threshold
pKd [22, 31]: below the threshold
pKd [23, 31]: below the threshold
pKd [24, 31]: below the threshold
pKd [25, 31]: 3.67
pKd [26, 31]: below the threshold
pKd [27, 31]: below the threshold
pKd [28, 31]: 5.29
pKd [29, 31]: 3.51
Binder: TVASEKESVM [SLC1A5, Q15758]

pKd [1, 31]: below the threshold
pKd [2, 31]: below the threshold
pKd [3, 31]: 3.75
pKd [4, 31]: below the threshold
pKd [5, 31]: 4.04
pKd [6, 31]: 4.22
pKd [7, 31]: below the threshold
pKd [8, 31]: 3.5
pKd [9, 31]: below the threshold
pKd [10, 31]: below the threshold
pKd [11, 31]: below the threshold
pKd [12, 31]: below the threshold
pKd [13, 31]: below the threshold
pKd [14, 31]: below the threshold
pKd [15, 31]: below the threshold
pKd [16, 31]: below the threshold
pKd [17, 31]: below the threshold
pKd [18, 31]: below the threshold
pKd [19, 31]: below the threshold
pKd [20, 31]: below the threshold
pKd [21, 31]: 3.71
pKd [22, 31]: below the threshold
pKd [23, 31]: below the threshold
pKd [24, 31]: below the threshold
pKd [25, 31]: below the threshold
pKd [26, 31]: below the threshold
pKd [27, 31]: below the threshold
pKd [28, 31]: 4.28
pKd [29, 31]: 4.44
Binder: PKTPPTDTSV [KIR3DL3, Q8N743]
